Laboratory results reported in article PMC9585320 (Frontiers in Molecular Biosciences, 2022).

T1: MazF9 toxin, (His)6MazF(FLAG)3 (Mycobacterium tuberculosis, UniProt P71650 1-118)
T1 chain: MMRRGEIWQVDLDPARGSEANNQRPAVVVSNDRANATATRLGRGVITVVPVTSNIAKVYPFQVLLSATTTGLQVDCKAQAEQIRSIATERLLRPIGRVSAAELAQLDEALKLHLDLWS

B1: C-terminal MazE9 peptide (residues 43-76) (peptide)
chain: LEDDYANAWQEWSAAGDTDAWEQTVGDGVGDAPR
B2: C-terminal MazE3 peptide (residues 72-106) (peptide)
chain: RLAERDAEILATNTSATGDLDTLAGHCARTALDID
B3: MazE6 antitoxin, full length, purified (natural protein)
chain: MKTAISLPDETFDRVSRRASELGMSRSEFFTKAAQRYLHELDAQLLTGQIDRALESIHGTDEAEALAVANAYRVLETMDDEW

Key:
[1] = target: T1, MazF9 toxin, (His)6MazF(FLAG)3; assay: MST
MazF6 library = assay: flow cytometry on cells

| Binder | Kd [1] [nM] | Kd (MazF6 library) [nM] |
| --- | --- | --- |
| B1 | 5.2 |  |
| B2 | 173 |  |
| B3 |  | 0.13 |
